This is an account of results in patent US20240390433A1, “GENETICALLY MODIFIED BACILLUS SUBTILIS STRAIN AND USE AS A LIVE DELIVERY AND […]” (BiomEdit, LLC, priority 2021, published 2024).

Data set [1] has as its target recombinant NetB (wild type NetB), Clostridium perfringens (Clostridium perfringens). As to the kind of experiment: cell-based or functional assay.
The test system of data set [2] is Clostridium perfringens alpha toxin. Format: biochemical.

Values joined by “and” are separate entries in the source; they are usually repeats but may differ in a detail not shown here. Equal entries are not always repeated. “Also recorded” adds a separate entry of the source.

B1: VHH antibody ENB-1D11 (VHH)
VHH: EVQLVESGGGLVQTGGSLRLSCTASGTIDMTYGLIWYRQAPGKERELVASIRRDGRTNYADSVKGRFTISIDNAKNSIHLQMNSLKPDDTARYYCNSPYHALWGQGTQVTVSS
As to B1, the lowest VHH concentration neutralizing NetB haemolysis in data set [1] was 1.25 µM and 0.625 µM.

B2: VHH antibody ENB-1A4 (VHH)
VHH: EVQLVESGGGLVQAGGSLRLSCAASGSIFSTNVMGWYRQAPGKQREFVAGITIGGTARYPDSVKGRFTISRDNTQNTVYLQMNNLKPEDTAVYYCNAVLPSDQRRWSWGQGTQVTVSS
With B2, the lowest VHH concentration neutralizing NetB haemolysis in data set [1] is 1.25 µM and 0.625 µM.

B3: EAT-1G4 (protein, listed as Camelus sp.)
VHH: EVQLVESGGGLVQPGGSLRLSCAASGSIATINDMGWFRQAPGKQRDWVATIVSDGSTAYADSVKGRFTISRDNAKNTVYLQMNSLKPEDTAVYYCSARRHYGQGTQVTVSSAAASGSLEQKLISEEDLNGAAHHHHHHGAA
modifications: REGION 1..141: note = Description of sequence: EAT-1G4 antibody
Consider B3, for which, in data set [2], the lecithinase activity neutralized was found to be 100% and the “neutralization of alpha toxin lecithinase activity (in words)” value was “less capable of neutralizing”.

B4: EAT-1F2 (protein, listed as Camelus sp.)
VHH: EVQLVESGGGLVQAGGSLRLSCAGSGRTGSLYSMGWFRQAPGKEREFVAAITWRPSSTYYADSVKGRFTISRDDAKNTVYLQMNSLKPEDTAVYFCAARPRGGLSPTPQAYDYWGQGTQVTVSSAAASGSLEQKLISEEDLNGAAHHHHHHGAA
modifications: REGION 1..154: note = Description of sequence: EAT-1F2 antibody
Turning to B4, in data set [2], the “neutralization of alpha toxin lecithinase activity (in words)” value was “high neutralizing capacity; also recorded: unable to completely neutralize” and the residual lecithinase activity entry was “about 25%”.
